Assay results published in the DeepSol protein solubility set.

experiment: soluble on expression in E. coli; label from the status in PepcDB or PDB records

Row | Sequence | soluble on expression in E. coli
1 | MDPFDRPKNDNDPFEDALKRCHKILEKLDCPFVTGKEKDLDESDDMTENEDHDEMANEDDGIPSNEKKVETRKMDCTSGQLLAPKLPEKAESISSASESSEDSESVAILKYTVRTCYAIWKKRQKNSEIALKGLMIVLELCLSQPSARDDAFSALLETLGYNTVTFWKAVVPQIYNSDLSYATQYREALLFSLVLYDVNHSKNRLRELYAAVPGVRQSMLGIRAKQFGERYRHLQMKIARSRASSRMSSKMGSEENLPAMASMMNDVVFDEEPHTQSPLVDMSHDKQRVINVSNAPPVSISRKTSGSWEIKQGSGGLVACVDPVMSADKKNIWLSNLGVNMQEELKEHSTSTNSLGLPLIKQACAGEVFCVLERNEKKEELTPKQQAVESDMSLLSVLNTYNKHSYQLNPVVVNQDDYNTYYGGISNGLLWPALHNLPQYISPCFDDPELLREQWCAYVRVNYLFAINAARNSRAQDFIWIHDYHLMLCGQIMRSLESSLDIGFFIHIPFQPPANFMTKYKTVADPIMRALLRFTKVGFQTSRDRDTFVKLVAKHIKRTKIEYDSRLDRYTIEHDGWTCSLGVFPVSIKIADFVNIAKNPQTIIEAEEIKKQIMGRSADGGQLFFSVERFDYTKGISEKLRAWQRYFEKYPDRIGKDVLFQVAVTNRRSVDSYRQYQDDVLAVADLINQKFKSEDYPEWKPVIFETDGLPRTRLIAHYLAMDIGVVTPSKDGMNLVAKEMLVCNPTASLVLSTGAGTEVQLSNAQFYSEQEGKCYHRVEEISNTEAFADNFFAAATESKETRTKHGEKINQFLCVHDIDEWSDQFLDPKWTHEVISQCEVKQLGQFYGLMSRTAQVRRQIVECVLKGLPIRPHFRYSLENAKNSLESSCKSGTKLSLEADEESGEEKGFEITYDIHDELSEMEKDLAFLAFIQSDEYENAEEFIKTLGSFYEGGPVLFKNEVKQAAEMLQQGIHYNTFFTDRDGTLKSYACSYPTSVQPAYSAVIQAQFARRCATFCAIVTTAPLLHTGILEVATIPEGYYAYGASAGREWYLNPAQQFKDRSFSAIDLNLMNKVFDIIEELLERPEFRIFKWIGSGIQKHCGHITIAKQDVNGTIPSRKVIRLYEQLVKIVNDFDPNGTTLTMRESDLDFKIYVKAKLKGRIFNKGHGIRLVRERLKPNMSKGNCLVCGDNESDIPMLEECLKLAGSKVYTIWVTADTNLQEKVTQLCDRFSCSNIHFVSCPQVLLGAMAYATAHTLVDERNRKLDYYYDSDTPMDQEESSTLGASLGTSFGN | not soluble
2 | MSLTESESGGDTMMAAVLDVLPHGRPGDDRPQHQKEPLAYALDIDEFYIYELQLADKDADIAFGDRIDLTEFGRVTEVEFEDIPSGARSELDYAVEEVVEANEQRFVDFYNDAQPITLRLHQLNLLPGIGKKLRNTILDERKRKPFESFEDLEKRVSGLHSPKETLVERILEELQDDDLKYRLFVRREEQSSEGHHHHHH | soluble
3 | MIEINDVNKKYQQTTVLNEINERIPSGGITSIIGPNGAGKSTLLSIMSRLLAADSGNVLFNGLDVAKTSGDKLATILSVLRQENHFTSRLTVSDLVGFGRYPYSRGRLNKNDRQHIDAAMEFLNLMPLKDRYLDELSGGQRQRAYVAMVLCQDTSYILLDEPLNNLDMKHCVAMMKQLRRAADELHKTIILVIHDINFASAYSDHIIAMKNGEVIYRGAPAEIMQPSILEEIFDIKISIEKVQGQHIAVYYR | not soluble
4 | MAALIRNLGARAAVAALSAKHVVPAAGSTALRMASTTPVEPKKADKPTVRQPDAVARSHLSDFGRYVAECLPKYVQKVQLTAGDELEVLIAPEGVVPVLQFLKDHHQAQFTNLVDIAGVDVPCRKNRFEVVYNLLSLRYNSRIRVKTYTDELTPLDSACEVHKAANWYEREIWDMYGVFFANHPDLRRILTDYGFEGHPQRRDFPLSGYVELRYDDEKKRVVCEPLELAQEFRKFDLSAPWEQFPNFRNANPPAEVVPPQAPAKK | not soluble
5 | MRILVTNDDGIYSPGLWALAEAASQFGEVFVAAPDTEQSAAGHAITIAHPVRAYPHPSPLHAPHFPAYRVRGTPADCVALGLHLFGPVDLVLSGVNLGSNLGHEIWHSGTVAAAKQGYLFGLSAAAFSVPLNGEVPDFAGLRPWLLRTLETLLRLERPFLVNVNLPLRPKGFLWTRQSVRAYEGVVIPGEDPMGRPFYWFAPRPLKEAEEGTDRWAVAQGFVSATPLRLDLTDETRLQPTLAHD | soluble
6 | MILLSKQTPLGAGRHRKCYTHPDNARRCIKVIYNRDHGGDKEIRRELSYYAHLSRYLTDWSAIPRYYGTVETDCGTGYVYDMITDFNGAPSITLTEFAAQCRYEEDVAVLRRLLKKLKRYLLDNHIVTMSLKPQNILCQRISESEVVPVVCDNLGESTFIPLATWSTWCCERKLERVWQRFIAQPALAVALERDAQPKDKKRLALTSHEALEHHHHHH | not soluble
7 | AHHHHHHGSGSSRTFRTSWADLGNLAKSIPPHHHLNPFEGKWNKKLSKKAIIMWQINVNDNRKFLSDC | not soluble
8 | MSLEKKVLATVGNTEITSDYIDEIIARYPAQQQAMLASDEGKRQVLEQAIAFELMSEFAKETGLDKTEEFKDQLNKFAKELLAQMVMKKTLSSVTVTDDEAKAFYEEHKENFVELETVTAKHILVASEEEAKKVEEEIASGSITFEDAANKYSSCPSKEQGGNLGSFSKGMMVPEFEEAAFNLELGVVSAPVKTQFGYHLIKVEDKTEAKTKAFEDVKEQVVNMLIQERQQKKYLELIKELREKYGVKLAEGHHHHHH | soluble
9 | MEDCRGDGSRREIERRRKYGRELQDLREGGEEFEYYFFVSNVFRTKLQKMPGADYSAVKGGGLKLKAGKKNLFKVGKEKKKKNKDDKEKIDPDTVENGGWRKIADEFDMKGGTNVAIEVASGAGSTRTYVAAMDNGKFTIGFPHPEGEGPNPEEIFALVKTPDDSKISLKTGFGRYVGVDSEYQLVAMAEAIGSREQFVLVFQEGKTAFQAVSSPLFLSTVPNKEGHIYVASRTATENEMVNIRTDAIQEGPVDWRSVEDRKNARECETAYVKMYQHSKVDLKNRHIAIDVKDKKGVKKAQADGSAHELLLDRRMKMKSDRYC | not soluble
10 | MSLAIRQHVGALFTDLYEVTMAQAYWAERMSGTAVFEIFFRKLPPGRSYIMAAGLADVVEFLEAFRFDEQDLRYLRGLGQFSDEFLRWLAGVRFTGDVWAAPEGTVIFPNEPAVQLIAPIIEAQLVETFVLNQIHLQSVLASKAARVVAAARGRPVVDFGARRAHGTDAACKVARTSYLAGAAGTSNLLAARQYGIPTFGTMAHSFVQAFDSEVAAFEAFARLYPATMLLVDTYDTLRGVDHVIELAKRLGNRFDVRAVRLDSGDLDELSKATRARLDTAGLEQVEIFASSGLDENRIAALLAARCPIDGFGVGTQLVVAQDAPALDMAYKLVAYDGSGRTKFSSGKVIYPGRKQVFRKLEHGVFCGDTLGEHGENLPGDPLLVPIMTNGRRIRQHAPTLDGARDWARQQIDALPPELRSLEDTGYSYPVAVSDRIVGELARLRHADTAEAHPGSNVVGAKAKRPEGHHHHHH | not soluble
11 | HGPKTGTPETKTVEIPFETKREFNPKLQPGEERVKQEGQPGSKTITTPITVNPLTGEKVGEGQPTEEITKQPVDKIVEFGGEK | soluble
12 | MNLPKKVRLVEVGPRDGLQNEKQPIEVADKIRLVDDLSAAGLDYIEVGSFVSPKWVPQMAGSAEVFAGIRQRPGVTYAALAPNLKGFEAALESGVKEVAVFAAASEAFSQRNINCSIKDSLERFVPVLEAARQHQVRVRGYISCVLGCPYDGDVDPRQVAWVARELQQMGCYEVSLGDTIGVGTAGATRRLIEAVASEVPRERLAGHFHDTYGQALANIYASLLEGIAVFDSSVAGLGGCPYAKGATGNVASEDVLYLLNGLEIHTGVDMHALVDAGQRICAVLGKSNGSRAAKALLAKA | soluble
13 | MRTFDDMLSKQLQDEEFKKEYDAIQPEMDVIRAIVDARTSQNMTQKELAERTGINQADISKLENGTRNPSVNLLKRLADAEMVLVRGSKDNVKPTQND | not soluble
14 | HLKFQSVFDIIGPVMIGPSSSHTAGAVRIGKVVHSIFGEPSEVTFHLYNSFAKTYQGHGTDKALVAGILGMDTDNPDIKNSLEIAHQKGIKIYWDILKDSNSPHPNTAKITVKNGDRSMSITGVSIGGGNIQVTELNG | not soluble
